Three molecules from US6894154 (REGENTS OF THE UNIVERSITY OF MICHIGAN, dated 2005) can be followed below.

B1: in vitro translated hKIS from pcDNA3.1/His ([35S]-methionine-labeled or unlabeled, epitope-tagged) (protein)
chain: MAGSGCAWGAEPPRFLEAFGRLWQVQSRLGSGSSASVYRVRCCGNPGSPPGALKQFLPPGTTGAAASAAEYGFRKERAALEQLQGHRNIVTLYGVFTIHFSPNVPSRCLLLELLDVSVSELLLYSSHQGCSMWMIQHCARDVLEALAFLHHEGYVHADLKPRNILWSAENECFKLIDFGLSFKEGNQDVKYIQTDGYRAPEAELQNCLAQAGLQSDTECTSAVDLWSLGIILLEMFSGMKLKHTVRSQEWKANSSAIIDHIFASKAVVNAAIPAYHLRDLIKSMLHDDPSRRIPAEMALCSPFFSIPFAPHIEDLVMLPTPVLRLLNVLDDDYLGNEEEYEDVVEDVKEECQKYGPVVSLLVPKENPGRGQVFVEYANAGDSKAAQKLLTGRMFDGKFVVATFYPLSAYKRGYLYQTLL
B2: hKIS (human KIS), clone C21, fused to the GAL4 activating domain (enzyme, not shown: large carriers)
chain: B1 chain
notes: Prey of the yeast two-hybrid assay; also called the clones
B3: pLAM5′ (human laminC/GAL4 DNA binding domain) (other, UniProt P04386 1-147, looked up)
chain: MKLLSSIEQACDICRLKKLKCSKEKPKCAKCLKNNWECRYSPKTKRSPLTRAHLTEVESRLERLEQLFLLIFPREDLDMILKMDSLQDIKALLTGLFVQDNVNKDAVTDRLASVETDMPLTLRQHRISATSSSEESSNKGQRQLTVSSEEVVSREVSGIKAAYEAELGDARKTLDSVAKERARLQLELSKVREEFKELKARNTKKEGDLIAAQARLKDLEALLNSKEAALSTALSEKRTLEGELHDLRGQVAKLEAALGEAKKQLQDEMLRRVDAENRLQTMKEELDFQKNIYSEELRETKRRHETRLVEID
notes: Bought control plasmid (Clontech)

The target in series [1] is p21^Cip1 as used in the in vitro phosphorylation assay.
Series [2] has as its target NH2-terminal GST-p27^Kip1 with serine 10 to alanine (pGSTp27^Kip1 NH2S1OM).
For series [3], the target named is p16^Ink4 as used in the in vitro phosphorylation assay.
For series [4], the target named is T1, NH2-terminal GST-p27^Kip1.
T1 chain: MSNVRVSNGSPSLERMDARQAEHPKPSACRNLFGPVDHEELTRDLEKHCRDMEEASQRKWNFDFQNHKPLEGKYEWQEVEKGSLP

Series [5] has as its target T2, p57^Kip2 as used in the in vitro phosphorylation assay.
T2 sequence (P49918 1-316, species assumed, looked up): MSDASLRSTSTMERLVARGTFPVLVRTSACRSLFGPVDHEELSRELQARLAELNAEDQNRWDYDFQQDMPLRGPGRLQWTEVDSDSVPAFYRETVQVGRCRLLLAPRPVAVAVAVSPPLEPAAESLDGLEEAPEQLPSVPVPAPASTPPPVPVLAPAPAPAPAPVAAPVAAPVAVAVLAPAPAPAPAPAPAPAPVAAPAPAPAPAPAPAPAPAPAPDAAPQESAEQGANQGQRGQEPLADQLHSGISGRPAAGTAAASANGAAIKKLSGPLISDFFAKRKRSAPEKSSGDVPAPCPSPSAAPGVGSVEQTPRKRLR

The target in series [6] is purified recombinant p27^Kip1 (bacterial-produced).
The target of series [7] is T3, pVA3 (murine p53/GAL4 DNA binding domain) (murine, UniProt P04386 1-147; P02340 72-390).
T3 construct: Bought control plasmid (Clontech)
The series is described as follows: yeast two-hybrid, beta-galactosidase staining.

The target of series [8] is B2. The series is described as follows: yeast two-hybrid, beta-galactosidase staining.

As for B1, the “in vitro phosphorylation in the presence of ^32P-ATP” value in series [1] is given as “hKIS did not phosphorylate p57^Kip2, p21^Cip1 or p16^Ink4”; in series [3] it was “hKIS did not phosphorylate p57^Kip2, p21^Cip1 or p16^Ink4”; in series [5] it was “hKIS did not phosphorylate p57^Kip2, p21^Cip1 or p16^Ink4”; in series [6] it was “hKIS readily phosphorylated bacterial-produced p27^Kip1”. The “in vitro phosphorylation assay” value in series [2] is “mutation of serine 10 to alanine (S10A) abolished phosphorylation of GST-p27^Kip1”; in series [4] it was “phosphorylation of GST-p27^Kip1 was detected in the NH2.terminal region of the protein”.

B2: the binding result in series [7] is “no binding”.

Turning to B3, the binding result in series [8] is “no binding”.
